Assay results: patent publication US20200109196A1 (MOGAM INSTITUTE FOR BIOMEDICAL RESEARCH, published 2020)

Tests used:
Assay in all cases: flow cytometry on transfected HEK293 cells (GFP+ gate), PE goat anti-huIgG4 [a]
[1] = biological target: T1, CEACAM3 expressed on the surface of HEK293 cells (human, UniProt P40198 35-252)
T1 construct: whole, on cells; GFP-tagged clone; also called CEACAM3-GFP
T1 sequence (looked up): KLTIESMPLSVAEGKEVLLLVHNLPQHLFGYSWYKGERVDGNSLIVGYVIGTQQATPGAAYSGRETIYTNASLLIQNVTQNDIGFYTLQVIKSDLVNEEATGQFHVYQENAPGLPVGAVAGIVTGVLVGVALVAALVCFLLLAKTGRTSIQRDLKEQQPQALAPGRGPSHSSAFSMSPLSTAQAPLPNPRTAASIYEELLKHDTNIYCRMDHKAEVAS
Description: (§1) HEK293 cells were added with 10 μg of each pEF1α-AcGFP-N1 vector (Clontech, Cat. No. 631973) as a control vector, CEACAM1, CEACAM3, CEACAM5, CEACAM6 and CEACAM8 plasmid vectors, followed by transfection under the condition of pulse voltage 1,100 V, pulse width 20 ms and pulse number 2. After 48 hours of transfection, GFP expression was confirmed by fluorescence microscopy. The cells were detached by treatment with 1 ml of TrypLE Express Solution (ThermoFisher Scientific; Cat. No. 12605010), resuspended in 9 ml of DMEM (Gibco, Cat. No. 11995-065) supplemented with 10% (v/v) FBS, and centrifuged at 1,200 rpm for 5 minutes, to remove the resulting supernatant.
(§2) After washing once with PBS, the cells were resuspended in a FACS buffer to obtain a concentration of 5×10⁵ cells/100 μl. Human Fc Block solution was added to the samples at 1 μl/sample, which were incubated at 4° C. for 10 minutes. The cells were treated with hulgG4 or one of the anti-CEACAM1 clones listed at 1 μg/5×10⁵ cells, which were incubated at 4° C. for 10 minutes. After washing with FACS buffer, the PE-labeled goat-anti-huIgG4 antibodies were diluted at a ratio of 1:200 in a FACS buffer, and added to the samples at 100 μl/sample, which were incubated at 4° C. for 30 minutes. The samples were filled with a FACS buffer up to 200 μl, and then centrifuged at 1,200 rpm for 5 minutes, to remove the resulting supernatant. The fixation buffer (300 μl) was added to resuspend the cells. The cells expressing GFP were selected in the FACS LSR-Fortessa device, and the expression of CEACAM members were evaluated respectively using the antibody specific to each CEACAM member (Table 3). Also, the binding of anti-CEACAM1 antibodies was evaluated by PE fluorescence channel and analyzed using the FlowJo software.

[2] = biological target: T2, CEACAM5 expressed on the surface of HEK293 cells (human, UniProt P06731 35-685)
T2 construct: whole, on cells; GFP-tagged clone; also called CEACAM5-GFP
T2 sequence (looked up): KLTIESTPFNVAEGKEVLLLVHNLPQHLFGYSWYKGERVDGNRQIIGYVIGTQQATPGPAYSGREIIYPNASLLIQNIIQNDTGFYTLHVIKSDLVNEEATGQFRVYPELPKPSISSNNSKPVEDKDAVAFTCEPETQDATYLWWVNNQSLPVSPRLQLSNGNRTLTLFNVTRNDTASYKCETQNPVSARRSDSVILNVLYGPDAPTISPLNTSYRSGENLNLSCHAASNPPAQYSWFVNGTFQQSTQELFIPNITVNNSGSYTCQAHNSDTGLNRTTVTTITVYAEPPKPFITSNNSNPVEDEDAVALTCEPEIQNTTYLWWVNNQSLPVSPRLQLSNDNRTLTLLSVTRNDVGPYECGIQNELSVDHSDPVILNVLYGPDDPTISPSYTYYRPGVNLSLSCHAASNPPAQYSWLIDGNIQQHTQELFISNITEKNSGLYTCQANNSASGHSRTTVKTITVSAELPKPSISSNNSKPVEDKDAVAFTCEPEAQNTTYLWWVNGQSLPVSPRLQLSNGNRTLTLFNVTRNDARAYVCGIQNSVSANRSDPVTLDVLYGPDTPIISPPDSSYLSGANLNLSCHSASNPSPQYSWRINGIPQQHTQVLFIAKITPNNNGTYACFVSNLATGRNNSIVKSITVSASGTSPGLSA
Description: as §1, §2

[3] = biological target: T3, CEACAM6 expressed on the surface of HEK293 cells (human, UniProt P40199 35-320)
T3 construct: whole, on cells; GFP-tagged clone; also called CEACAM6-GFP
T3 sequence (looked up): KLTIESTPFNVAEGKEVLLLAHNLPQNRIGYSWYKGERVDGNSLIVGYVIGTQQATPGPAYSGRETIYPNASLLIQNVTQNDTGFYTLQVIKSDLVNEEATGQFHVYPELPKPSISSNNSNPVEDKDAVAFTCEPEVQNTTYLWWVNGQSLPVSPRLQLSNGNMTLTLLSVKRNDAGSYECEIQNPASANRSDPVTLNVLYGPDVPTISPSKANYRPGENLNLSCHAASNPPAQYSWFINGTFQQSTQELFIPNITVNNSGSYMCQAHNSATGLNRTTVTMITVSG
Description: as §1, §2

[4] = biological target: T4, CEACAM8 expressed on the surface of HEK293 cells (human, UniProt P31997 35-320)
T4 construct: whole, on cells
T4 sequence (looked up): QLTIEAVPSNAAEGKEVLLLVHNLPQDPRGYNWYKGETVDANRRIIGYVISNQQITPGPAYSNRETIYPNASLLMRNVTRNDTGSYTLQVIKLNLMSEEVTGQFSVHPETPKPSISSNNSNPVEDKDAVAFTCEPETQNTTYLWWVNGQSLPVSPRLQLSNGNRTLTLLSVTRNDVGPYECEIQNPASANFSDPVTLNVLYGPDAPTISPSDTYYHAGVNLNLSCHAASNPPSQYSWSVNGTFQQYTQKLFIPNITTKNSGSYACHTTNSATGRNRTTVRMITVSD
Description: as §1, §2

Measured: binding result

B1: C25 (antibody, human IgG4 S228P, lambda, V domains shown)
VH: EVQLLESGGGLVQPGGSLRLSCAASGFTFSNYAMSWVRQAPGKGLEWVSVISHGGGSIYYADSVKGRLTISRDNSKNTLYLQMNSLRAEDTAVYYCARDPTKGYAPTFDYWGQGTLVTVSS
VL: QSVLTQPPSASGTPGQRVTISCSGSSSNIGNNYVSWYQQLPGTAPKLLIYADSKRPSGVPDRFSGSKSGTSASLAISGLRSEDEADYYCGAWDASLNGYVFGGGTKLTVLG
notes: Made in ExpiHEK293F cells, protein A purified. huIgG4 is the isotype control and anti-huIgG4 the detection reagent; the isotype is not otherwise stated; also called anti-CEACAM1 antibody C25
no binding: all assays above
